These results are taken from article PMC5064372.

Test [1] addresses catalytically inactive mouse neutrophil elastase (Ser195Ala) with a C-terminal cysteine tag, fluorescently labelled (mouse). The test can be described thus: MST; AAT serially diluted (titrated), 5 nM fluorescently labelled inactive NE, in 7.5% plasma pool from individuals with low FEV1 (<=50%, n = 12); storage buffer (20 mM Na2HPO4, 300 mM NaCl pH 7.4) with Tween 20, 22 °C, 2 h incubation; global fit of four measurements.

For test [2] the target is unchanged. Kind of test: MST; AAT serially diluted (titrated), 5 nM fluorescently labelled inactive NE, in 7.5% plasma pool from individuals with high FEV1 (>=80%, n = 8); storage buffer (20 mM Na2HPO4, 300 mM NaCl pH 7.4) with Tween 20, 22 °C, 2 h incubation; global fit of four measurements.

For “recombinant Z-variant alpha-1-antitrypsin (Glu342Lys) with three stabilizing mutations (Met374Ile, Ser381Ala, Lys387Arg) on the M1(Ala213) background (from UniProt P01009 25-418) (natural protein)”, the Kd (as a rule, the concentration at which binding is half-saturated) in test [1] is 1300 nM; in test [2] it was 500 nM.
